Data: article PMC12645976, “ARGLU1 is a negative regulator of the adenoviral replicative cycle” (Journal of Virology, 2025)

Biological target: T1, 6xHis-E1A289R (HAdV5 E1A289R, 6xHis-tagged fusion protein) (human adenovirus 5 (HAdV5), UniProt P03255 1-289)
T1 construct: Early protein 1A (E1A) of human adenovirus 5 (HAdV5), the 289R product (289 residues by its name); also called Early protein 1A
Test: pull-down; GST-ARGLU1 or GST mixed with 6xHis-E1A289R, captured on glutathione beads; 1 µg of each protein; western blot with M73 and M2 monoclonal E1A antibodies; glutathione beads alone as negative control
Settings: both partners purified

T1 sequence (P03255 whole entry, the tested form may be a part): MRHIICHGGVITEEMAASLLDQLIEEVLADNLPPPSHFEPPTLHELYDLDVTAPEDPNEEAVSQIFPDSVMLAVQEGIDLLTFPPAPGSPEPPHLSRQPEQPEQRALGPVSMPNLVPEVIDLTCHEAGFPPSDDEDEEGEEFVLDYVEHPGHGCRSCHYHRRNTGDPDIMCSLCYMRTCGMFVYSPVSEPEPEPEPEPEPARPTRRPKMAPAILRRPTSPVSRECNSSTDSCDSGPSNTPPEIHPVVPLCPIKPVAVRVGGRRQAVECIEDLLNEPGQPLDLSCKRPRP

B1: GST-ARGLU1 (human ARGLU1, GST-tagged fusion protein) (natural protein, UniProt Q9NWB6 1-273, looked up)
chain: MGRSRSRSSSRSKHTKSSKHNKKRSRSRSRSRDKERVRKRSKSRESKRNRRRESRSRSRSTNTAVSRRERDRERASSPPDRIDIFGRTVSKRSSLDEKQKREEEEKKAEFERQRKIRQQEIEEKLIEEETARRVEELVAKRVEEELEKRKDEIEREVLRRVEEAKRIMEKQLLEELERQRQAELAAQKAREEEERAKREELERILEENNRKIAEAQAKLAEEQLRIVEEQRKIHEERMKLEQERQRQQKEEQKIILGKGKSRPKLSFSLKTQD
notes: Arginine and glutamate-rich protein 1 (ARGLU1), human; also called Arginine and glutamate-rich protein 1; source: E. coli BL21 (DE3)-CodonPlus RIPL, purified (glutathione Sepharose, eluted with reduced glutathione, dialyzed)
Question: Does B1 bind?
Answer: binds
